Data from the Human Domainome abundance scans (Beltran et al. 2025).
± gives the uncertainty stated by the source.

B1: Zinc finger MYM-type protein 3, residues 589 to 668; numbered along this chain, Q14202 (parent)
chain: LSCHYCHSLFSGKPEVLDWQDQVFQFCCRDCCEDFKRLRGVVSQCEHCRQEKLLHEKLRFSGVEKSFCSEGCVLLYKQDF

Variants of: B1
Assay: abundance fitness (aPCA) (normalised: wild type 0, dead -1); higher = more abundant; growth selection in yeast, the domain comes from the species named
Conditions: Homo sapiens

Variant | abundance fitness
LSCHYCHSLFSGKPEVLDWQDQVFYFCCRDCCEDFKRLRGVVSQCEHCRQEKLLHEKLRFSGVEKSFCSEGCVLLYKQDF [Q25Y] | 0.025 ± 0.059
LSCHYCHSLFSGKPEVLDWQDQVFMFCCRDCCEDFKRLRGVVSQCEHCRQEKLLHEKLRFSGVEKSFCSEGCVLLYKQDF [Q25M] | 0.198 ± 0.059
LSCHYCHSLFSGKPEVLDWQDQVFSFCCRDCCEDFKRLRGVVSQCEHCRQEKLLHEKLRFSGVEKSFCSEGCVLLYKQDF [Q25S] | 0.016 ± 0.044
LSCHYCHSLFSGKPEVLDWQDQVFWFCCRDCCEDFKRLRGVVSQCEHCRQEKLLHEKLRFSGVEKSFCSEGCVLLYKQDF [Q25W] | 0.033 ± 0.046
LSCHYCHSLFSGKPEVLDWQDQVFIFCCRDCCEDFKRLRGVVSQCEHCRQEKLLHEKLRFSGVEKSFCSEGCVLLYKQDF [Q25I] | -0.084 ± 0.067
LSCHYCHSLFSGKPEVLDWQDQVFLFCCRDCCEDFKRLRGVVSQCEHCRQEKLLHEKLRFSGVEKSFCSEGCVLLYKQDF [Q25L] | -0.163 ± 0.046
LSCHYCHSLFSGKPEVLDWQDQVFKFCCRDCCEDFKRLRGVVSQCEHCRQEKLLHEKLRFSGVEKSFCSEGCVLLYKQDF [Q25K] | 0.113 ± 0.05
LSCHYCHSLFSGKPEVLDWQDQVFVFCCRDCCEDFKRLRGVVSQCEHCRQEKLLHEKLRFSGVEKSFCSEGCVLLYKQDF [Q25V] | 0.032 ± 0.041
LSCHYCHSLFSGKPEVLDWQDQVFHFCCRDCCEDFKRLRGVVSQCEHCRQEKLLHEKLRFSGVEKSFCSEGCVLLYKQDF [Q25H] | 0.122 ± 0.064
LSCHYCHSLFSGKPEVLDWQDQVFQACCRDCCEDFKRLRGVVSQCEHCRQEKLLHEKLRFSGVEKSFCSEGCVLLYKQDF [F26A] | -0.49 ± 0.053
LSCHYCHSLFSGKPEVLDWQDQVFQGCCRDCCEDFKRLRGVVSQCEHCRQEKLLHEKLRFSGVEKSFCSEGCVLLYKQDF [F26G] | -0.603 ± 0.058
LSCHYCHSLFSGKPEVLDWQDQVFQVCCRDCCEDFKRLRGVVSQCEHCRQEKLLHEKLRFSGVEKSFCSEGCVLLYKQDF [F26V] | -0.515 ± 0.048
LSCHYCHSLFSGKPEVLDWQDQVFQQCCRDCCEDFKRLRGVVSQCEHCRQEKLLHEKLRFSGVEKSFCSEGCVLLYKQDF [F26Q] | -0.482 ± 0.069
LSCHYCHSLFSGKPEVLDWQDQVFQWCCRDCCEDFKRLRGVVSQCEHCRQEKLLHEKLRFSGVEKSFCSEGCVLLYKQDF [F26W] | -0.522 ± 0.075
LSCHYCHSLFSGKPEVLDWQDQVFQHCCRDCCEDFKRLRGVVSQCEHCRQEKLLHEKLRFSGVEKSFCSEGCVLLYKQDF [F26H] | -0.666 ± 0.15
LSCHYCHSLFSGKPEVLDWQDQVFQNCCRDCCEDFKRLRGVVSQCEHCRQEKLLHEKLRFSGVEKSFCSEGCVLLYKQDF [F26N] | -0.391 ± 0.1
LSCHYCHSLFSGKPEVLDWQDQVFQTCCRDCCEDFKRLRGVVSQCEHCRQEKLLHEKLRFSGVEKSFCSEGCVLLYKQDF [F26T] | -0.489 ± 0.062
LSCHYCHSLFSGKPEVLDWQDQVFQRCCRDCCEDFKRLRGVVSQCEHCRQEKLLHEKLRFSGVEKSFCSEGCVLLYKQDF [F26R] | -0.603 ± 0.049
LSCHYCHSLFSGKPEVLDWQDQVFQKCCRDCCEDFKRLRGVVSQCEHCRQEKLLHEKLRFSGVEKSFCSEGCVLLYKQDF [F26K] | -0.524 ± 0.075
LSCHYCHSLFSGKPEVLDWQDQVFQPCCRDCCEDFKRLRGVVSQCEHCRQEKLLHEKLRFSGVEKSFCSEGCVLLYKQDF [F26P] | -0.664 ± 0.071
LSCHYCHSLFSGKPEVLDWQDQVFQMCCRDCCEDFKRLRGVVSQCEHCRQEKLLHEKLRFSGVEKSFCSEGCVLLYKQDF [F26M] | 0.134 ± 0.051
LSCHYCHSLFSGKPEVLDWQDQVFQICCRDCCEDFKRLRGVVSQCEHCRQEKLLHEKLRFSGVEKSFCSEGCVLLYKQDF [F26I] | -0.731 ± 0.14
LSCHYCHSLFSGKPEVLDWQDQVFQYCCRDCCEDFKRLRGVVSQCEHCRQEKLLHEKLRFSGVEKSFCSEGCVLLYKQDF [F26Y] | -0.409 ± 0.1

Variant | abundance fitness
LSCHYCHSLFSGKPEVLDWQDQVFQECCRDCCEDFKRLRGVVSQCEHCRQEKLLHEKLRFSGVEKSFCSEGCVLLYKQDF [F26E] | -0.506 ± 0.057
LSCHYCHSLFSGKPEVLDWQDQVFQCCCRDCCEDFKRLRGVVSQCEHCRQEKLLHEKLRFSGVEKSFCSEGCVLLYKQDF [F26C] | -0.444 ± 0.078
LSCHYCHSLFSGKPEVLDWQDQVFQDCCRDCCEDFKRLRGVVSQCEHCRQEKLLHEKLRFSGVEKSFCSEGCVLLYKQDF [F26D] | -0.657 ± 0.11
LSCHYCHSLFSGKPEVLDWQDQVFQFCDRDCCEDFKRLRGVVSQCEHCRQEKLLHEKLRFSGVEKSFCSEGCVLLYKQDF [C28D] | 0.041 ± 0.062
LSCHYCHSLFSGKPEVLDWQDQVFQFCRRDCCEDFKRLRGVVSQCEHCRQEKLLHEKLRFSGVEKSFCSEGCVLLYKQDF [C28R] | 0.074 ± 0.039
LSCHYCHSLFSGKPEVLDWQDQVFQFCERDCCEDFKRLRGVVSQCEHCRQEKLLHEKLRFSGVEKSFCSEGCVLLYKQDF [C28E] | -0.228 ± 0.063
LSCHYCHSLFSGKPEVLDWQDQVFQFCIRDCCEDFKRLRGVVSQCEHCRQEKLLHEKLRFSGVEKSFCSEGCVLLYKQDF [C28I] | -0.703 ± 0.13
LSCHYCHSLFSGKPEVLDWQDQVFQFCARDCCEDFKRLRGVVSQCEHCRQEKLLHEKLRFSGVEKSFCSEGCVLLYKQDF [C28A] | 0.017 ± 0.041
LSCHYCHSLFSGKPEVLDWQDQVFQFCNRDCCEDFKRLRGVVSQCEHCRQEKLLHEKLRFSGVEKSFCSEGCVLLYKQDF [C28N] | -0.16 ± 0.12
LSCHYCHSLFSGKPEVLDWQDQVFQFCYRDCCEDFKRLRGVVSQCEHCRQEKLLHEKLRFSGVEKSFCSEGCVLLYKQDF [C28Y] | -0.557 ± 0.15
LSCHYCHSLFSGKPEVLDWQDQVFQFCTRDCCEDFKRLRGVVSQCEHCRQEKLLHEKLRFSGVEKSFCSEGCVLLYKQDF [C28T] | 0.11 ± 0.047
LSCHYCHSLFSGKPEVLDWQDQVFQFCMRDCCEDFKRLRGVVSQCEHCRQEKLLHEKLRFSGVEKSFCSEGCVLLYKQDF [C28M] | 0.129 ± 0.046
LSCHYCHSLFSGKPEVLDWQDQVFQFCSRDCCEDFKRLRGVVSQCEHCRQEKLLHEKLRFSGVEKSFCSEGCVLLYKQDF [C28S] | -0.021 ± 0.044
LSCHYCHSLFSGKPEVLDWQDQVFQFCLRDCCEDFKRLRGVVSQCEHCRQEKLLHEKLRFSGVEKSFCSEGCVLLYKQDF [C28L] | -0.758 ± 0.059
LSCHYCHSLFSGKPEVLDWQDQVFQFCHRDCCEDFKRLRGVVSQCEHCRQEKLLHEKLRFSGVEKSFCSEGCVLLYKQDF [C28H] | -0.081 ± 0.11
LSCHYCHSLFSGKPEVLDWQDQVFQFCPRDCCEDFKRLRGVVSQCEHCRQEKLLHEKLRFSGVEKSFCSEGCVLLYKQDF [C28P] | -0.607 ± 0.076
LSCHYCHSLFSGKPEVLDWQDQVFQFCQRDCCEDFKRLRGVVSQCEHCRQEKLLHEKLRFSGVEKSFCSEGCVLLYKQDF [C28Q] | 0.087 ± 0.046
LSCHYCHSLFSGKPEVLDWQDQVFQFCFRDCCEDFKRLRGVVSQCEHCRQEKLLHEKLRFSGVEKSFCSEGCVLLYKQDF [C28F] | -0.83 ± 0.12
LSCHYCHSLFSGKPEVLDWQDQVFQFCGRDCCEDFKRLRGVVSQCEHCRQEKLLHEKLRFSGVEKSFCSEGCVLLYKQDF [C28G] | 0.08 ± 0.038
LSCHYCHSLFSGKPEVLDWQDQVFQFCKRDCCEDFKRLRGVVSQCEHCRQEKLLHEKLRFSGVEKSFCSEGCVLLYKQDF [C28K] | 0.105 ± 0.063
LSCHYCHSLFSGKPEVLDWQDQVFQFCWRDCCEDFKRLRGVVSQCEHCRQEKLLHEKLRFSGVEKSFCSEGCVLLYKQDF [C28W] | -0.973 ± 0.094
LSCHYCHSLFSGKPEVLDWQDQVFQFCVRDCCEDFKRLRGVVSQCEHCRQEKLLHEKLRFSGVEKSFCSEGCVLLYKQDF [C28V] | -0.321 ± 0.043
LSCHYCHSLFSGKPEVLDWQDQVFQFDCRDCCEDFKRLRGVVSQCEHCRQEKLLHEKLRFSGVEKSFCSEGCVLLYKQDF [C27D] | -0.352 ± 0.078

Variant | abundance fitness
LSCHYCHSLFSGKPEVLDWQDQVFQFICRDCCEDFKRLRGVVSQCEHCRQEKLLHEKLRFSGVEKSFCSEGCVLLYKQDF [C27I] | -0.752 ± 0.21
LSCHYCHSLFSGKPEVLDWQDQVFQFACRDCCEDFKRLRGVVSQCEHCRQEKLLHEKLRFSGVEKSFCSEGCVLLYKQDF [C27A] | -0.673 ± 0.055
LSCHYCHSLFSGKPEVLDWQDQVFQFVCRDCCEDFKRLRGVVSQCEHCRQEKLLHEKLRFSGVEKSFCSEGCVLLYKQDF [C27V] | -0.692 ± 0.06
LSCHYCHSLFSGKPEVLDWQDQVFQFPCRDCCEDFKRLRGVVSQCEHCRQEKLLHEKLRFSGVEKSFCSEGCVLLYKQDF [C27P] | -0.483 ± 0.062
LSCHYCHSLFSGKPEVLDWQDQVFQFYCRDCCEDFKRLRGVVSQCEHCRQEKLLHEKLRFSGVEKSFCSEGCVLLYKQDF [C27Y] | -0.798 ± 0.32
LSCHYCHSLFSGKPEVLDWQDQVFQFLCRDCCEDFKRLRGVVSQCEHCRQEKLLHEKLRFSGVEKSFCSEGCVLLYKQDF [C27L] | -0.89 ± 0.08
LSCHYCHSLFSGKPEVLDWQDQVFQFECRDCCEDFKRLRGVVSQCEHCRQEKLLHEKLRFSGVEKSFCSEGCVLLYKQDF [C27E] | -0.721 ± 0.062
LSCHYCHSLFSGKPEVLDWQDQVFQFFCRDCCEDFKRLRGVVSQCEHCRQEKLLHEKLRFSGVEKSFCSEGCVLLYKQDF [C27F] | -0.607 ± 0.17
LSCHYCHSLFSGKPEVLDWQDQVFQFQCRDCCEDFKRLRGVVSQCEHCRQEKLLHEKLRFSGVEKSFCSEGCVLLYKQDF [C27Q] | -0.653 ± 0.075
LSCHYCHSLFSGKPEVLDWQDQVFQFMCRDCCEDFKRLRGVVSQCEHCRQEKLLHEKLRFSGVEKSFCSEGCVLLYKQDF [C27M] | -0.472 ± 0.07
LSCHYCHSLFSGKPEVLDWQDQVFQFNCRDCCEDFKRLRGVVSQCEHCRQEKLLHEKLRFSGVEKSFCSEGCVLLYKQDF [C27N] | -0.706 ± 0.099
LSCHYCHSLFSGKPEVLDWQDQVFQFHCRDCCEDFKRLRGVVSQCEHCRQEKLLHEKLRFSGVEKSFCSEGCVLLYKQDF [C27H] | -0.517 ± 0.11
LSCHYCHSLFSGKPEVLDWQDQVFQFKCRDCCEDFKRLRGVVSQCEHCRQEKLLHEKLRFSGVEKSFCSEGCVLLYKQDF [C27K] | -0.882 ± 0.096
LSCHYCHSLFSGKPEVLDWQDQVFQFWCRDCCEDFKRLRGVVSQCEHCRQEKLLHEKLRFSGVEKSFCSEGCVLLYKQDF [C27W] | -0.859 ± 0.072
LSCHYCHSLFSGKPEVLDWQDQVFQFGCRDCCEDFKRLRGVVSQCEHCRQEKLLHEKLRFSGVEKSFCSEGCVLLYKQDF [C27G] | -0.572 ± 0.048
LSCHYCHSLFSGKPEVLDWQDQVFQFRCRDCCEDFKRLRGVVSQCEHCRQEKLLHEKLRFSGVEKSFCSEGCVLLYKQDF [C27R] | -0.756 ± 0.055
LSCHYCHSLFSGKPEVLDWQDQVFQFSCRDCCEDFKRLRGVVSQCEHCRQEKLLHEKLRFSGVEKSFCSEGCVLLYKQDF [C27S] | -0.892 ± 0.086
LSCHYCHSLFSGKPEVLDWQDQVFQFCCGDCCEDFKRLRGVVSQCEHCRQEKLLHEKLRFSGVEKSFCSEGCVLLYKQDF [R29G] | 0.008 ± 0.04
LSCHYCHSLFSGKPEVLDWQDQVFQFCCEDCCEDFKRLRGVVSQCEHCRQEKLLHEKLRFSGVEKSFCSEGCVLLYKQDF [R29E] | 0.013 ± 0.045
LSCHYCHSLFSGKPEVLDWQDQVFQFCCFDCCEDFKRLRGVVSQCEHCRQEKLLHEKLRFSGVEKSFCSEGCVLLYKQDF [R29F] | 0.095 ± 0.056
LSCHYCHSLFSGKPEVLDWQDQVFQFCCADCCEDFKRLRGVVSQCEHCRQEKLLHEKLRFSGVEKSFCSEGCVLLYKQDF [R29A] | 0.069 ± 0.042
LSCHYCHSLFSGKPEVLDWQDQVFQFCCDDCCEDFKRLRGVVSQCEHCRQEKLLHEKLRFSGVEKSFCSEGCVLLYKQDF [R29D] | 0.082 ± 0.053
LSCHYCHSLFSGKPEVLDWQDQVFQFCCCDCCEDFKRLRGVVSQCEHCRQEKLLHEKLRFSGVEKSFCSEGCVLLYKQDF [R29C] | 0.08 ± 0.05
